In assay [1] the target is HLA-B*53:01. The assay is described as follows: IEDB peptide-MHC binding, purified MHC/competitive/radioactivity; filed as Kd, often an IC50 or EC50 that approximates it; ≥ and ≤ were set here for values at or beyond the usual limits of such assays. Particulars: source organism: Dengue virus 2 Jamaica/1409/1983.
Assay [2] concerns the target HLA-A*26:01. Described as above.
Assay [3] concerns the target HLA-B*40:01. The description is as above.
The target in assay [4] is HLA-A*30:01. The assay is described as above.
The target of assay [5] is HLA-A*33:01. Described as above.
Assay [6] addresses HLA-A*02:01. Described as above.
The target of assay [7] is HLA-B*44:02. The description is as above.
Assay [8] addresses HLA-A*24:02. Put plainly: IEDB peptide-MHC binding, purified MHC/competitive/fluorescence; ≥ and ≤ were set here for values at or beyond the usual limits of such assays.
For assay [9], the target named is HLA-A*11:01. Put plainly: IEDB peptide-MHC binding, purified MHC/competitive/radioactivity; filed as Kd, often an IC50 or EC50 that approximates it; ≥ and ≤ were set here for values at or beyond the usual limits of such assays. Particulars: source organism: Vaccinia virus WR.
Assay [10] concerns the target HLA-A*03:01. Described as above. Conditions: source organism: Vaccinia virus WR.
Assay [11] addresses HLA-A*68:01. Described as above.
Assay [12] addresses HLA-A*31:01. The description is as above. Particulars: source organism: Vaccinia virus WR.
Assay [13] has as its target HLA-A*02:01. The assay is described as follows: IEDB peptide-MHC binding, purified MHC/competitive/fluorescence; ≥ and ≤ were set here for values at or beyond the usual limits of such assays.
The target of assay [14] is HLA-A*02:03. The assay is described as follows: IEDB peptide-MHC binding, purified MHC/competitive/radioactivity; filed as Kd, often an IC50 or EC50 that approximates it; ≥ and ≤ were set here for values at or beyond the usual limits of such assays. Particulars: source organism: Homo sapiens.
Assay [15] concerns the target HLA-A*24:02. The assay is described as above.
Assay [16] deals with HLA-A*23:01. The description is as above.
For assay [17], the target named is HLA-A*30:02. The assay is described as above. Particulars: source organism: Dengue virus 4 Philippines/H241/1956.
Assay [18] deals with HLA-B*51:01. The assay is described as above. Particulars: source organism: Dengue virus 1 Singapore/S275/1990.
In assay [19] the target is HLA-A*11:01. The assay is described as follows: IEDB peptide-MHC binding, purified MHC/direct/fluorescence; filed as Kd, often an IC50 or EC50 that approximates it; ≥ and ≤ were set here for values at or beyond the usual limits of such assays. Conditions: source organism: SARS-CoV1.
For assay [20], the target named is HLA-A*03:01. The description is as above.
The target in assay [21] is HLA-A*31:01. Described as above.
Assay [22] has as its target HLA-B*27:05. The assay is described as above. Conditions: source organism: SARS-CoV1.
In assay [23] the target is HLA-B*15:01. Described as above.
Assay [24] deals with HLA-A*69:01. The description is as above. Conditions: source organism: SARS-CoV1.
For assay [25], the target named is HLA-A*02:01. The assay is described as above. Conditions: source organism: SARS-CoV1.
Assay [26] has as its target HLA-A*26:01. Described as above.
Assay [27] concerns the target HLA-A*02:06. The assay is described as follows: IEDB peptide-MHC binding, purified MHC/competitive/radioactivity; filed as Kd, often an IC50 or EC50 that approximates it; ≥ and ≤ were set here for values at or beyond the usual limits of such assays. Particulars: source organism: Dengue virus 2 Jamaica/1409/1983.
Setting [28] is: source organism: Dengue virus 2 Jamaica/1409/1983.
Where [29] appears, read: source organism: Dengue virus 4 Philippines/H241/1956.
The mark [30] stands for this setting: source organism: Dengue virus 3 Martinique/1243/1999.
[31] abbreviates: source organism: Dengue virus 1 Brazil/97-11/1997.
Where [32] appears, read: source organism: Zaire ebolavirus.
The mark [33] stands for this setting: source organism: Vaccinia virus WR.
Setting [34] is: source organism: Sudan ebolavirus.
Where [35] appears, read: source organism: Vaccinia virus Copenhagen.
Where [36] appears, read: source organism: Lassa virus Josiah.
Setting [37] is: source organism: Haemophilus influenzae.
[38] abbreviates: source organism: SARS coronavirus Tor2.
Setting [39] is: source organism: Dengue virus 4 Thailand/0348/1991.

On to EPIPMSTYGW, for which the values for the Kd in assay [1] and in [2] (setting [28]) were 334 nM and no less than 40500 nM, respectively.
As for HTIENTSAN, the Kd in [2] (setting [29]) amounted to 4840 nM.
With YENLKYTVII, in [3] (setting [30]), the Kd was 2.82 nM.
Consider EVKTCIWPK, for which the figures for the Kd in assay [4] (setting [31]) and in [5] (setting [31]) were 1350 nM and 2.82 nM, respectively.
On to AVPSHWVPTS, for which, in assay [4] (setting [28]), the Kd worked out at 15000 nM.
TISGVLWQV: the Kd in [6] (source organism: Hepatitis C virus subtype 2b) stood at 35 nM.
Take ILDKVLVHP: the Kd in [6] (source organism: Homo sapiens) was 4080 nM.
With HEMYWVSCG, the Kd in [7] (setting [31]) worked out at 37.4 nM.
The sequence KRDGVKRLE showed an IC50 in [8] (setting [32]) of no less than 173000 nM.
On to AEGVITQDDM, for which the Kd in [3] (setting [29]) stood at 1310 nM.
Turning to MAICSAVPTE, in [4] (setting [29]), the Kd was 10600 nM.
In the case of KFRPGSLIY, the Kd in assay [9] was no less than 58400 nM; in assay [10], no less than 21300 nM; in assay [4] (setting [33]), 0.303 nM; in [11] (setting [33]), no less than 77700 nM; in [12], 11300 nM; in assay [5] (setting [33]) it was no less than 77700 nM.
In assay [8] (source organism: Vaccinia virus), YPNVCIFGN had an IC50 of 35500 nM.
With RYVHKVSGT, the IC50 in assay [13] (setting [32]) was no less than 90900 nM; in [8] (setting [32]) it was 6660 nM.
Turning to ALPHAILRL, the figures for the Kd in assay [14] and in assay [6] (source organism: Homo sapiens) were 7.87 nM and 128 nM, respectively.
In the case of LWVAEIQPQW, the Kd in assay [15] (setting [29]) turned out to be 312 nM; in [16] (setting [29]), 1380 nM.
In assay [8] (setting [34]), DKFRKSSFF showed an IC50 of 52200 nM.
In the case of LFQKAFSMP, the IC50 in [8] (setting [34]) came out at 2780 nM.
For KAISNARLK, in assay [4] (setting [33]), the Kd amounted to 26 nM.
In the case of SVKCQSPPS, the Kd in assay [4] (setting [33]) was 16.8 nM.
Turning to DRERLKVFL, the IC50 in [8] (source organism: Variola virus) was no less than 169000 nM.
For the sequence EEYVDYMPV, the Kd in assay [3] (setting [29]) is 190 nM.
As to KAKTTISNY, the Kd in assay [4] (setting [33]) was 24.3 nM.
Take EKTKTDFGFY: the Kd in [17] was found to be 20.1 nM; in [2] (setting [29]), 9240 nM.
On to MDSRPQKIW, for which the IC50 in [13] (setting [32]) is no less than 191000 nM; in [8] (setting [32]), 67800 nM.
For MFLIAENKI, the dissociation constant Kd was 913 nM in [16] (source organism: Dengue virus 1 Singapore/S275/1990) and 2760 nM in assay [18].
QAFTFSPTYK: in assay [6] (source organism: Hepatitis B virus subtype adw2), the Kd is no less than 35000 nM.
Consider NVWEVEDYGF, for which, in assay [16] (setting [30]), the Kd came out at 175 nM.
Consider SGVLWDTPSP, for which, in [4] (setting [31]), the Kd was no less than 70400 nM.
For the sequence TVTGILGSL, the IC50 in assay [13] (setting [34]) is 22500 nM; in assay [8] (setting [34]), no less than 76800 nM.
As to IVRDSMWYI, the Kd in [4] (setting [35]) is 19.7 nM.
Take TVIEHLERL: the Kd in assay [2] (setting [30]) is 81.1 nM.
For the sequence NEMILLTMK, in assay [7] (setting [30]), the Kd turned out to be 824 nM.
Consider KIKSSNSSK, for which the Kd in assay [4] (setting [33]) was 14.6 nM.
Consider CTILAAVSVS, for which the Kd in assay [4] (setting [28]) was 2830 nM; in assay [2] (setting [28]), no less than 55900 nM.
TTRDKLFNK: the Kd in assay [4] (setting [33]) amounted to 123 nM.
Take VLLGVKLSGV: the Kd in assay [6] (source organism: Homo sapiens) worked out at 4.7 nM.
Consider RHYSASFKK, for which the Kd in [19] was found to be 705 nM; in assay [20] (source organism: SARS-CoV1), 341 nM; in [21] (source organism: SARS-CoV1), 1250 nM; in assay [22], 282 nM.
Turning to AYTIGTTHF, the Kd in [15] (setting [28]) came out at 774 nM; in [16] (setting [28]), 126 nM.
For the sequence RTKITSLPL, the Kd in assay [4] (setting [33]) turned out to be 0.0866 nM.
As to REIVVPCRNQ, in assay [3] (setting [31]), the Kd turned out to be 228 nM.
On to SYLAGAGLLF, for which the Kd was 6.22 nM in assay [15] (setting [28]) and 0.709 nM in assay [16] (setting [28]).
On to AFKVRPTFA, for which the Kd in [4] (setting [28]) came out at 52.1 nM.
On to TSFFLWVII, for which the IC50 is no less than 503000 nM in [13] (setting [32]) and no less than 131000 nM in [8] (setting [32]).
Take LTKLFSYGT: the IC50 in assay [13] (source organism: Variola virus) came to 36100 nM.
In the case of CLPAAPDGI, the IC50 in assay [13] (setting [32]) was 3840 nM; in assay [8] (setting [32]), 37400 nM.
In the case of EERDIPERSW, the Kd in [7] (setting [31]) turned out to be 72.4 nM.
YWPVMNHKN displayed an IC50 in assay [8] (setting [32]) of 7120 nM.
As for REDLWCGSL, in [3] (setting [29]), the Kd is 2.35 nM.
Regarding GMSGGNQGA, the Kd in [6] (setting [36]) came to 12500 nM.
CLEKVQRQI showed an IC50 in assay [13] (setting [32]) of 21900 nM.
Take PLEEELPR: in assay [6] (source organism: Hepatitis B virus), the Kd was no less than 25000 nM.
On to ILKEHVSRY, for which the Kd in assay [20] (setting [37]) stood at 3180 nM; in assay [23] (setting [37]) it was 531 nM; in [21] (setting [37]), 5580 nM.
For KLFAAETLK, the Kd was 15900 nM in [24]; no less than 29200 nM in [25]; no less than 21300 nM in [23] (source organism: SARS-CoV1); 173 nM in assay [21] (source organism: SARS-CoV1); 2180 nM in [22]; 399 nM in assay [11] (setting [38]). Moreover, the Kd in assay [5] (setting [38]) was 13600 nM.
As for VWIEDNPNMI, the Kd in [15] (setting [39]) is 546 nM; in assay [16] (setting [39]), 472 nM.
As for NLLTTPKFT, the Kd in assay [6] (source organism: Human alphaherpesvirus 1 strain 17) stood at 500 nM.
In the case of ELMMATIGIA, the Kd in assay [2] (setting [28]) is 65 nM.
For the sequence LCRTSCLQK, the Kd in assay [4] (setting [29]) amounted to 1350 nM.
PTAWQSVGH: the IC50 in assay [13] (setting [32]) was no less than 264000 nM; in [8] (setting [32]), 28700 nM.
On to ISRSRRLFA, for which the Kd in assay [4] (setting [33]) came to 2.23 nM.
In the case of CETCVYNMM, the Kd in assay [7] (setting [28]) came to 92.2 nM; in assay [3] (setting [28]) it was 52.1 nM.
For the sequence VLQTFMRMA, the Kd in [6] (setting [36]) was no less than 5000 nM.
In turn, EGINELGAM yielded a Kd in [26] (source organism: Vibrio vulnificus CMCP6) of 48 nM.
For the sequence PVYQVNNLE, the IC50 in assay [8] (setting [32]) is no less than 100000 nM.
For the sequence REEEEAGVL, the Kd in [3] (setting [28]) amounted to 3.23 nM.
On to RTLRVLNLV, for which the figures for the dissociation constant Kd in assay [27] and in [4] (setting [28]) were 10.2 nM and 222 nM, respectively.
As to QREIFSAWI, in assay [8] (source organism: Variola virus), the IC50 was no less than 76300 nM.
In [26] (source organism: Bacillus cereus AH1134), EVADRILFM showed a Kd of 3 nM.
For the sequence SSQMTSTFI, the IC50 in [13] (setting [35]) is no less than 72600 nM; in assay [8] (setting [35]) it was no less than 70900 nM.
CSRLQTCIK: the equilibrium dissociation constant (Kd) in assay [4] (setting [35]) was 44 nM.
Turning to WLVSNGSYL, the Kd in assay [6] (setting [36]) is 1790 nM.
On to KRSLRPQPTE, for which, in assay [4] (setting [28]), the Kd amounted to 3690 nM.
On to NWLNNNTQF, for which the Kd in [15] (setting [28]) was determined as 88 nM; in assay [16] (setting [28]), 716 nM.

By Kd is commonly meant a measure of binding affinity in units of concentration. Broadly, the IC50 is the concentration that inhibits the measured activity by half. Read a low IC50 as higher potency.

Values taken from the Immune Epitope Database (IEDB).
